# US20140271457A1 (AbbVie / Abbott, published 2014)
# Target: Recombinant Human IL-13 (human, UniProt P35225 35-146, limits assumed)
# Assay: Biacore SPR
# Description: The BIACORE assay (GE, Healthcare Piscataway, N.J.) determined the affinity of antibodies or DVD-Ig with kinetic measurements of on-rate and off-rate constants. Binding of antibodies or DVD-Ig proteins to a target antigen (for example, a purified recombinant target antigen) was determined by surface plasmon resonance-based measurements with a Biacore T200 using running HBS-EP+buffer from GE Healthcare at 25° C. All chemicals were obtained from GE Healthcare or otherwise from a different source as described in the text. For example, approximately 5000 RU of goat anti-mouse IgG, (Fcγ), fragment specific polyclonal antibody (Pierce Biotechnology Inc, Rockford, Ill.) diluted in 10 mM sodium acetate (pH 4.5) was directly immobilized across a CM5 research grade biosensor chip using a standard amine coupling kit according to manufacturer's instructions. Unreacted moieties on the biosensor surface were blocked with ethanolamine. Modified carboxymethyl dextran surface in flowcell 1 was used as a reference surface. Rate constants were derived by making kinetic binding measurements at different antigen concentrations ranging from 0.8-100 nM. Binding was recorded as a function of time and kinetic rate constants were calculated. In this assay, association rate was evaluated for 5 min and dissociation was monitored for 10 min. For kinetic screening analysis, rate equations derived from the 1:1 binding model were fitted simultaneously to association and dissociation phases of all injections (using global fit analysis with Rmax fit locally to account for capture variations) with the use of Biaevaluation software. Purified antibodies or DVD-Ig proteins were diluted in HEPES-buffered saline for capture across goat anti-mouse IgG specific reaction surfaces. Antibodies or DVD-Ig proteins to be captured as a ligand were injected over reaction matrices at a flow rate of 5 μl/minute. The association and dissociation rate constants, kₒₙ (M⁻¹ s⁻¹) and koff (s⁻¹) were determined under a continuous flow rate of 50 μl/minute. Rate constants were derived by making kinetic binding measurements at different antigen concentrations ranging from 0.8-100 nM. Binding was recorded as a function of time and kinetic rate constants were calculated. In this assay, association rate was evaluated for 5 min and dissociation was monitored for 10 min.
# Sequence of Recombinant Human IL-13 (P35225 35-146 limits assumed): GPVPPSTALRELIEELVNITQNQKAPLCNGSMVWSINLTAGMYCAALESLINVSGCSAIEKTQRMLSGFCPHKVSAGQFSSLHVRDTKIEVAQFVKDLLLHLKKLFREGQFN
Binder,Kd [pM],koff [s⁻¹],kon [M⁻¹ s⁻¹]
"DVD2683 (bispecific antibody, IgG1, DVD-Ig; wt hIgG1 + kappa constants) VH: EVQLVESGGGLVQPGGSLRLSCAASGFTFSNYGVTWVRQAPGKGLEWVSMIWADGSTHYASSVKGRFTISRDNSKNTLYLQMNSLRAEDTAVYYCAREWQHGPVAYWGQGTLVTVSSGGGGSGGGGSEVTLRESGPGLVKPTQTLTLTCTLYGFSLSTSDMGVDWIRQPPGKGLEWLAHIWWDDVKRYNPALKSRLTISKDTSKNQVVLKLTSVDPVDTATYYCARTVSSGYIYYAMDYWGQGTLVTVSS VL: DIQMTQSPSSLSASVGDRVTITCRASQLVSSAVAWYQQKPGKAPKLLIYWASARHTGVPSRFSGSGSGTDFTLTISSLQPEDFATYYCQQHYKTPFTFGQGTKLEIKRGGSGGGGSGDIQMTQSPSSLSASVGDRVTISCRASQDIRNYLNWYQQKPGKAPKLLIFYTSKLHSGVPSRFSGSGSGTDYTLTISSLQPEDIATYYCQQGLTPPLTFGGGTKVEIKR",870,5.9e-05,68000
"DVD2733 (bispecific antibody, IgG1, DVD-Ig; wt hIgG1 + kappa constants) VH: EVQLVESGGGLVQPGGSLRLSCAASGFTFSNYGVEWVRQAPGKGLEWVSGIWADGSTHYADTVKSRFTISRDNSKNTLYLQMNSLRAEDTAVYYCAREWQHGPVAYWGQGTLVTVSSGGGGSGGGGSEVTLRESGPGLVKPTQTLTLTCTLYGFSLSTSDMGVDWIRQPPGKGLEWLAHIWWDDVKRYNPALKSRLTISKDTSKNQVVLKLTSVDPVDTATYYCARTVSSGYIYYAMDYWGQGTLVTVSS VL: DIQMTQSPSSLSASVGDRVTITCKASQLVSSAVAWYQQKPGKAPKLLIYWASTLHTGVPSRFSGSGSGTDFTLTISSLQPEDFATYYCQQHYRTPFTFGQGTKLEIKRGGSGGGGSGDIQMTQSPSSLSASVGDRVTISCRASQDIRNYLNWYQQKPGKAPKLLIFYTSKLHSGVPSRFSGSGSGTDYTLTISSLQPEDIATYYCQQGLTPPLTFGGGTKVEIKR",1100,8.6e-05,79000
"DVD2684 (bispecific antibody, IgG1, DVD-Ig; wt hIgG1 + kappa constants) VH: EVQLVESGGGLVQPGGSLRLSCAASGFTFSNYGVTWVRQAPGKGLEWVSMIWADGSTHYASSVKGRFTISRDNSKNTLYLQMNSLRAEDTAVYYCAREWQHGPVAYWGQGTLVTVSSASTKGPEVTLRESGPGLVKPTQTLTLTCTLYGFSLSTSDMGVDWIRQPPGKGLEWLAHIWWDDVKRYNPALKSRLTISKDTSKNQVVLKLTSVDPVDTATYYCARTVSSGYIYYAMDYWGQGTLVTVSS VL: DIQMTQSPSSLSASVGDRVTITCRASQLVSSAVAWYQQKPGKAPKLLIYWASARHTGVPSRFSGSGSGTDFTLTISSLQPEDFATYYCQQHYKTPFTFGQGTKLEIKRTVAAPDIQMTQSPSSLSASVGDRVTISCRASQDIRNYLNWYQQKPGKAPKLLIFYTSKLHSGVPSRFSGSGSGTDYTLTISSLQPEDIATYYCQQGLTPPLTFGGGTKVEIKR",1200,5.9e-05,48000
"AB397 (antibody, V domains shown, parent antibody) VH: EVTLRESGPGLVKPTQTLTLTCTLYGFSLSTSDMGVDWIRQPPGKGLEWLAHIWWDDVKRYNPALKSRLTISKDTSKNQVVLKLTSVDPVDTATYYCARTVSSGYIYYAMDYWGQGTLVTVSS VL: DIQMTQSPSSLSASVGDRVTISCRASQDIRNYLNWYQQKPGKAPKLLIFYTSKLHSGVPSRFSGSGSGTDYTLTISSLQPEDIATYYCQQGLTPPLTFGGGTKVEIKR",130,0.00012,920000
"AB398 (antibody, V domains shown, parent antibody) VH: EVQLVQSGAEVKKPGASVKVSCKASGYTFTTYGVSWVRQAPGQGLEWMGEIYPGNYNTYYNEKFRGRVTMTTDTSTSTAYMELRSLRSDDTAVYYCARWRTSYFSDYGYFDYWGQGTTVTVSS VL: DVVMTQSPLSLPVTLGQPASISCRSSQSLVHSHGNTYLHWYQQRPGQSPRLLIYTVSNRFSGVPDRFSGSGSGTDFTLKISRVEAEDVGVYYCSQSTHVPYTFGGGTKVEIKR",45,2.8e-05,630000
"AB399 (antibody, V domains shown, parent antibody) VH: EVQLVQSGAEVKKPGASVKVSCKASGYTFTSYWMHWVRQAPGQGLEWIGNINPKGGSNIYNEKFQGRVTMTRDTSISTAYMELSRLRSDDTAVYYCARLDYFGDSFDLWGQGTTVTVSS VL: DIQMTQSPSSLSASVGDRVTITCRASQGIRNYLNWYQQKPGKAPKLLIYYASNLEVGVPSRFSGSGSGTDYTLTISSLQPEDFATYYCQQDNRFPYTFGGGTKVEIKR",19,6.4e-05,3.4e+06

# Second part, the binder after the results:
Kd [pM],koff [s⁻¹],kon [M⁻¹ s⁻¹],Binder
900,7.7e-05,85000,"DVD3174 (bispecific antibody, IgG1, DVD-Ig; wt hIgG1 + kappa constants) VH: EVQLVQSGAEVKKPGASVKVSCKASGYTFNNYGIIWVRQAPGQGLEWMGWINTYTGKPTYAQKFQGRVTMTTDTSTSTAYMELSSLRSEDTAVYYCARKLFNTVAVTDNAMDYWGQGTTVTVSSASTKGPEVQLVQSGAEVKKPGASVKVSCKASGYTFTSYWMHWVRQAPGQGLEWIGNINPKGGSNIYNEKFQGRVTMTRDTSISTAYMELSRLRSDDTAVYYCARLDYFGDSFDLWGQGTTVTVSS VL: DIQMTQSPSSLSASVGDRVTITCRASQDIENYLNWYQQKPGKAPKLLIYYTSRLQSGVPSRFSGSGSGTDFTLTISSLQPEDFATYFCQQGNTQPPTFGQGTKLEIKRTVAAPDIQMTQSPSSLSASVGDRVTITCRASQGIRNYLNWYQQKPGKAPKLLIYYASNLEVGVPSRFSGSGSGTDYTLTISSLQPEDFATYYCQQDNRFPYTFGGGTKVEIKR"
87,4.8e-05,550000,"DVD3176 (bispecific antibody, IgG1, DVD-Ig; wt hIgG1 + kappa constants) VH: EVQLVQSGAEVKKPGASVKVSCKASGYTFNNYGIIWVRQAPGQGLEWMGWINTYTGKPTYAQKFQGRVTMTTDTSTSTAYMELSSLRSEDTAVYYCARKLFNTVAVTDNAMDYWGQGTTVTVSSASTKGPEVQLVQSGAEVKKPGASVKVSCKASGYTFTSYWMHWVRQAPGQGLEWIGNINPKGGSNIYNEKFQGRVTMTRDTSISTAYMELSRLRSDDTAVYYCARLDYFGDSFDLWGQGTTVTVSS VL: DIQMTQSPSSLSASVGDRVTITCRASQDIENYLNWYQQKPGKAPKLLIYYTSRLQSGVPSRFSGSGSGTDFTLTISSLQPEDFATYFCQQGNTQPPTFGQGTKLEIKRTVAAPSVFIFPPDIQMTQSPSSLSASVGDRVTITCRASQGIRNYLNWYQQKPGKAPKLLIYYASNLEVGVPSRFSGSGSGTDYTLTISSLQPEDFATYYCQQDNRFPYTFGGGTKVEIKR"
820,4.8e-05,58000,"DVD2734 (bispecific antibody, IgG1, DVD-Ig; wt hIgG1 + kappa constants) VH: EVQLVESGGGLVQPGGSLRLSCAASGFTFSNYGVEWVRQAPGKGLEWVSGIWADGSTHYADTVKSRFTISRDNSKNTLYLQMNSLRAEDTAVYYCAREWQHGPVAYWGQGTLVTVSSASTKGPEVTLRESGPGLVKPTQTLTLTCTLYGFSLSTSDMGVDWIRQPPGKGLEWLAHIWWDDVKRYNPALKSRLTISKDTSKNQVVLKLTSVDPVDTATYYCARTVSSGYIYYAMDYWGQGTLVTVSS VL: DIQMTQSPSSLSASVGDRVTITCKASQLVSSAVAWYQQKPGKAPKLLIYWASTLHTGVPSRFSGSGSGTDFTLTISSLQPEDFATYYCQQHYRTPFTFGQGTKLEIKRTVAAPDIQMTQSPSSLSASVGDRVTISCRASQDIRNYLNWYQQKPGKAPKLLIFYTSKLHSGVPSRFSGSGSGTDYTLTISSLQPEDIATYYCQQGLTPPLTFGGGTKVEIKR"
